B1: Dynamin-binding protein, residues 242 to 304; numbered along this chain, Q6XZF7 (parent)
chain: EEPGTYGVALYRFQALEPNELDFEVGDKIRILATLEDGWLEGSLKGRTGIFPYRFVKLCPDTR

± gives the uncertainty stated by the source.

In the data set the parent is B1. As to the kind of experiment: abundance fitness (aPCA) (normalised: wild type 0, dead -1); higher = more abundant; growth selection in yeast, the domain comes from the species named. The note with it: Homo sapiens.
For the variant EEPGTYGVALYRFQALEPNELDFEVGDKIRILATLEDGWLEGSLKGTTGIFPYRFVKLCPDTR [R47T], the abundance fitness is -0.678 ± 0.16.
In the case of EEPGTYGVALYRFQALEPNELDFEVGDKIRILATLEDGWLEGSLKGKTGIFPYRFVKLCPDTR [R47K], the abundance fitness was found to be 0.115 ± 0.2.
To EEPGTYGVALYRFQALEPNKLDFEVGDKIRILATLEDGWLEGSLKGRTGIFPYRFVKLCPDTR [E20K] belongs -0.068 ± 0.11.
Turning to EEPGTYGVALYRFQALEPNPLDFEVGDKIRILATLEDGWLEGSLKGRTGIFPYRFVKLCPDTR [E20P], the abundance fitness is -1.03 ± 0.35.
In the case of EEPGTYGVALYRFQALEPNELDFEVGDKIRILATLEDGWLEGSLKGRTGIFPYRFVKLCPDGR [T62G] it was 0.046 ± 0.049; in that of EEPGTYGVALYRFQALEPNELDFEVGDKIRILATLEDGWLEGSLKGRTGIFPYRFVKLCPDDR [T62D], 0.021 ± 0.051; in that of EEPGTYGVALYRFQALEPNELDFEVGDKIRILATLTDGWLEGSLKGRTGIFPYRFVKLCPDTR [E36T], -0.277 ± 0.089.
For EEPGTYGVALYRFQALEPNELDFEVGDKIRILATLCDGWLEGSLKGRTGIFPYRFVKLCPDTR [E36C], the abundance fitness was -0.434 ± 0.072.
To EEPGTYGVALYRFQALEPNELDFEVGDKIRILATLWDGWLEGSLKGRTGIFPYRFVKLCPDTR [E36W] belongs -0.612 ± 0.18.
To EEPGTYGVALYRFQALEPNELDFEVGDKIRILATLEDGWLEGSLKGRTGIFPYRFVKLCKDTR [P60K] belongs 0.054 ± 0.11.
To EEPGTYGVALYRFQALEPNELDFEVGDKIRILATLEDGWLEGSLKGRTGIGPYRFVKLCPDTR [F51G] belongs -0.85 ± 0.095; to EEPGTYGVALYRNQALEPNELDFEVGDKIRILATLEDGWLEGSLKGRTGIFPYRFVKLCPDTR [F13N], -0.023 ± 0.057; to EEPGTYGVALYRFQALEPNELDFEVGDKIRILATLEDGWLEGSCKGRTGIFPYRFVKLCPDTR [L44C], -0.159 ± 0.076.
In the case of EEPGTYGVALYRFQALEPNELDFEVGDKIRILATLEDGWLEGRLKGRTGIFPYRFVKLCPDTR [S43R], the abundance fitness was -0.346 ± 0.076.
In the case of EEPGTYGVALYRFQALEPNELDFEVGDKIRILATLEDGWLEGMLKGRTGIFPYRFVKLCPDTR [S43M] it was -0.127 ± 0.13; in that of EEPGTYGVALYRFQALEPNELDFEVGDKIRILATLEDGWLEGKLKGRTGIFPYRFVKLCPDTR [S43K], -0.148 ± 0.15; in that of YEPGTYGVALYRFQALEPNELDFEVGDKIRILATLEDGWLEGSLKGRTGIFPYRFVKLCPDTR [E1Y], -0.23 ± 0.083.
Regarding EEPGTYGVAPYRFQALEPNELDFEVGDKIRILATLEDGWLEGSLKGRTGIFPYRFVKLCPDTR [L10P], the abundance fitness is -0.7 ± 0.15.
To EEPGTYGVALYRFQALEPNELDFEVGDKIRILATLEDGWLEGSLKGRTGIFPYRFVKLCPDTW [R63W] belongs -0.206 ± 0.16.
To EEPGTYGVALYRFQALEPNELDFEVGDKIRILATLEDGWLEGSLKGRTGIFPYRFVKLCPDTF [R63F] belongs -0.216 ± 0.089.
In the case of EEPGTYGVALYRFQALEPNELDFEVGDKIRILATLEDGWLEGSLKGRTGIFPYRFVKLCPDTV [R63V] it was -0.056 ± 0.079; in that of EEPGTYGVALYRFFALEPNELDFEVGDKIRILATLEDGWLEGSLKGRTGIFPYRFVKLCPDTR [Q14F], -0.413 ± 0.075; in that of EEPGTYGVALYRFEALEPNELDFEVGDKIRILATLEDGWLEGSLKGRTGIFPYRFVKLCPDTR [Q14E], -0.131 ± 0.13.
For the variant EEPGTYGVALYRFQALEPNELDFEVGDKIRILATLEDGWLEGSLHGRTGIFPYRFVKLCPDTR [K45H], the abundance fitness was 0.081 ± 0.076.
In the case of EEPGTYGVALYRFQALEPNELDFEVGDKIRILATLEDGWLEGSLKGRTGIFPYRFVWLCPDTR [K57W], the abundance fitness is -0.677 ± 0.16.
In the case of EEPGTYGVALYRFQALEPNELDFEVGDKIRILATLEDGWLEGSLKGRTGIFPYRFVLLCPDTR [K57L], the abundance fitness was -0.562 ± 0.074.
In the case of EEPGTYGVALYRFQALEPNELDFEVGDKIRILATLEDGWLEGSLKGRTGIFPYRFVALCPDTR [K57A] it was -0.318 ± 0.072.
In the case of EEPGTYGVALYRFQALEPNELDFEVGDKIRILATLEDGLLEGSLKGRTGIFPYRFVKLCPDTR [W39L] it was -0.184 ± 0.067.
To EEPGTYGVALYRFQALEPNELDFEVGDKIRILATLEDGRLEGSLKGRTGIFPYRFVKLCPDTR [W39R] belongs -0.144 ± 0.058; to EEPGTYGVALYRFQALEPNELDFEVGDKIRILATLEDGSLEGSLKGRTGIFPYRFVKLCPDTR [W39S], -0.56 ± 0.067; to EEPGTYGVALYRFQALEPNELDFEVGDKIRILATLEDGMLEGSLKGRTGIFPYRFVKLCPDTR [W39M], -0.057 ± 0.14.
For the variant EEPGTYGVALYRFQALEPNELDFEVGDKIRILATLEDGWLEGSLKGRTGIFPYRFVKLLPDTR [C59L], the abundance fitness was -0.049 ± 0.067.
With EEPGTYGVALYRFQALEPNELDFEVGDKIRILATLEDGWLEGSLKGRTGIFPYRFWKLCPDTR [V56W], the abundance fitness was -0.826 ± 0.33.
For the variant EEPGTYGVALYRFQALEPNELDFEVGDKIRILATLEDGWLEGSLKGRTGIFPYRFCKLCPDTR [V56C], the abundance fitness was -0.864 ± 0.12.
In the case of EEPGTYGHALYRFQALEPNELDFEVGDKIRILATLEDGWLEGSLKGRTGIFPYRFVKLCPDTR [V8H] it was -0.321 ± 0.11; in that of EEPGTYGVALYRFQALEPNELDFEVGDKIRILATLEDLWLEGSLKGRTGIFPYRFVKLCPDTR [G38L], -0.61 ± 0.12.
With EEPGTYGVHLYRFQALEPNELDFEVGDKIRILATLEDGWLEGSLKGRTGIFPYRFVKLCPDTR [A9H], the abundance fitness was -0.967 ± 0.16.
In the case of EEPGTNGVALYRFQALEPNELDFEVGDKIRILATLEDGWLEGSLKGRTGIFPYRFVKLCPDTR [Y6N] it was -0.785 ± 0.095.
To EEPGTYGVALYRFQALEPNELDFEVGDKIRILATLEDGWLESSLKGRTGIFPYRFVKLCPDTR [G42S] belongs -0.846 ± 0.1.
With EEPGTYGVALYRFQWLEPNELDFEVGDKIRILATLEDGWLEGSLKGRTGIFPYRFVKLCPDTR [A15W], the abundance fitness is -0.637 ± 0.23.
To EEPGTYGVALYRFQTLEPNELDFEVGDKIRILATLEDGWLEGSLKGRTGIFPYRFVKLCPDTR [A15T] belongs 0.06 ± 0.072; to EEPGTYGVALYRFQMLEPNELDFEVGDKIRILATLEDGWLEGSLKGRTGIFPYRFVKLCPDTR [A15M], -0.639 ± 0.31.

The values are drawn from the Human Domainome abundance scans (Beltran et al. 2025).
